In one test the target is human C1s (human). Put plainly: cell-based or functional assay.
In test [1] the target is T1, blood coagulation factor XIIa (human, UniProt P00748 20-615).
T1 sequence (looked up): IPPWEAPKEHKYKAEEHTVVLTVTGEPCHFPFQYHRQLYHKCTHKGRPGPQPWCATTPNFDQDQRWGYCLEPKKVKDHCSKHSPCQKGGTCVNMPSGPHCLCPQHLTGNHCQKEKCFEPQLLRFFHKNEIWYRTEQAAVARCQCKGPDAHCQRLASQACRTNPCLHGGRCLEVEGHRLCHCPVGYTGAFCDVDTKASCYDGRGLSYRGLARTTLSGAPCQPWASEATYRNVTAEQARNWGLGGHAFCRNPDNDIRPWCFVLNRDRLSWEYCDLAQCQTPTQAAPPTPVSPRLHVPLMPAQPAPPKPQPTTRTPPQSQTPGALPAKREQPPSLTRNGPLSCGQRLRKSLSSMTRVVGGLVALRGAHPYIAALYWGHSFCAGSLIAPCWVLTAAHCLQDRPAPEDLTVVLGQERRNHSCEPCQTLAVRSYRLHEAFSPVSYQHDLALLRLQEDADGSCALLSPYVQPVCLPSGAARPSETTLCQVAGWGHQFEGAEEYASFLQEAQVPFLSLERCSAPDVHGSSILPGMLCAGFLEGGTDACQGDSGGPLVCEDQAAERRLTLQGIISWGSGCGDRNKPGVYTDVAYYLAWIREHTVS
Put plainly: cell-based or functional assay.

In test [2] the target is T1, blood coagulation factor XIIa. Nature of the test: BLI; Octet QKe; each protease diluted to 10 ug/mL in 10 mM sodium acetate pH 6.0 and covalently immobilised on amino reactive sensors (AR2G); C1 inhibitor at 11, 5.5 and 2.8 uM in triplicates; 24 °C, 250 rpm; only the association rate constant calculated because complex formation is irreversible. As to conditions: both partners purified.

We go through two molecules from publication PMC8621594, “Physicochemical and Biological Characterization of rhC1INH Expressed in CHO Cells” (Pharmaceuticals, 2021).

B1: Ruconest^® (conestat alfa), human recombinant C1 inhibitor purified from the milk of transgenic rabbits (natural protein, UniProt P05155 23-500, looked up)
chain: NPNATSSSSQDPESLQDRGEGKVATTVISKMLFVEPILEVSSLPTTNSTTNSATKITANTTDEPTTQPTTEPTTQPTIQPTQPTTQLPTDSPTQPTTGSFCPGPVTLCSDLESHSTEAVLGDALVDFSLKLYHAFSAMKKVETNMAFSPFSIASLLTQVLLGAGENTKTNLESILSYPKDFTCVHQALKGFTTKGVTSVSQIFHSPDLAIRDTFVNASRTLYSSSPRVLSNNSDANLELINTWVAKNTNNKISRLLDSLPSDTRLVLLNAIYLSAKWKTTFDPKKTRMEPFHFKNSVIKVPMMNSKKYPVAHFIDQTLKAKVGQLQLSHNLSLVILVPQNLKHRLEDMEQALSPSVFKAIMEKLEMSKFQPTLLTLPRIKVTTSQDMLSIMEKLEFFDFSYDLNLCGLTEDPDLQVSAMQHQTVLELTETGVEAAAASAISVARTLLVFEVQQPFLFVLWDQQHKFPVFMGRVYDPRA
modifications: glycosylated; 8.0 ± 0.6 mol Neu5Ac/mol protein
Turning to B1, the “IC50 of the inhibition of human serum complement (lysis of chicken erythrocytes), Ruconest® 0.0076 to 15.6 IU/mL; printed as activity against human C1-esterase in the blood serum” value with human C1s worked out at 1.66 IU/mL.

B2: recombinant human C1 esterase inhibitor (rhC1INH) from Chinese hamster ovary (CHO) cells (natural protein, UniProt P05155 23-500, looked up)
chain: B1 chain
modifications: heavily glycosylated: six occupied N- and more than 12 O- sites of glycosylation; about 20 mol Neu5Ac/mol protein
notes: mass of the totally deglycosylated protein 52,846 Da (theoretical 52,849 Da); By LC-MS 71% of the deglycosylated product is the full structure; source: genetically engineered CHO cells, purified
As for B2, the “inhibitory activity toward factor XIIa, chromogenic substrate S-2302, inhibitor 18 to 0.14 µM, relative to Berinert® (100%)” value in test [1] is 115%. For the same molecule, the kon in test [2] is 3260 M⁻¹ s⁻¹.
